One test concerns the target T1, rat α-CGRP (Rattus norvegicus, UniProt P01256).
T1 construct: rat α (1-37); host or cells: synthetic peptide
T1 sequence (P01256 83-119 limits assumed): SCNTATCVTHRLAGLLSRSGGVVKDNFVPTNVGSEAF
As to the kind of experiment: Biacore affinity of antibody G1 Fab and variants to rat α-CGRP. In kind it is binding. Conditions: 37° C., Fab, screening mode unless underlined. The protocol:
(§1) Biacore assay for affinity determination. […] All Biacore assays were conducted in HBS-EP running buffer (10 mM HEPES pH 7.4, 150 mM NaCl, 3 mM EDTA, 0.005% v/v polysorbate P20). CGRP surfaces were prepared by diluting the N-biotinylated CGRP to a concentration of less than 0.001 mg/mL into HBS-EP buffer and injecting it across the SA sensor chip using variable contact times. Low capacity surfaces, corresponding to capture levels <50 response units (RU) were used for high-resolution kinetic studies, whereas high capacity surfaces (about 800 RU of captured CGRP) were used for concentration studies, screening, and solution affinity determinations. […] Samples were typically injected for lminute at 100 μL/min and dissociation times of at least 10 minutes were allowed. After each binding cycle, surfaces were regenerated with 25 mM NaOH in 25% v/v ethanol, which was tolerated over hundreds of cycles. An entire titration series (typically generated in duplicate) was fit globally to a 1:1 Langmuir binding model using the BlAevaluation program. This returned a unique pair of association and dissociation kinetic rate constants (respectively, kon and koff) for each binding interaction, whose ratio gave the equilibrium dissociation constant (KD=koff/[…]).
(§2) High-resolution analysis of binding interactions with extremely slow offrates. […] The protocol described above was used with the following modifications. The association rate constant (kon) was determined by injecting a 2-fold titration series (in duplicate) spanning 550 nM-1 nM for 30 seconds at 100 μL/min and allowing only a 30 second dissociation phase. The dissociation rate constant (koff) was determined by injecting three concentrations (high, medium, and low) of the same titration series in duplicate for 30 seconds and allowing a 2-hour dissociation phase. The affinity (KD) of each interaction was obtained by combining the kon and koff values obtained in both types of experiments, as shown in Table 4.
(§3) The binding affinities of Fab fragments were determined by Biacore by flowing them across CGRPs on a SA chip.
For orientation: In SPR one partner is held on a chip, and binding of the other changes the refractive index at the surface.

For a further test, the target named is T2, human α-CGRP (Homo sapiens, UniProt P06881).
T2 construct: 1-37 (WT); purchased; host or cells: synthetic peptide
T2 sequence (P06881 83-119 limits assumed): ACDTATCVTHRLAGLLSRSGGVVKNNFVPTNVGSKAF
Nature of the test: Biacore affinity of antibody G1 Fab and variants to human α-CGRP. In kind it is binding. Conditions: 37° C., Fab, screening mode unless underlined. Here is the method:
as §1, §2, §3

B1: M80: G1 variant: L1 R28N,T30S; L2 L56I; H2 E54K,A57N,S58V; HC-FW3 L99T,A100V (antibody, V domains shown)
VH: EVQLVESGGGLVQPGGSLRLSCAASGFTFSNYWISWVRQAPGKGLEWVAEIRSKSDNVATHYAEAVKGRFTISRDNAKNSLYLQMNSLRAEDTAVYYCTVYFDYGLAIQNYWGQGTLVTVSS
VL: EIVLTQSPATLSLSPGERATLSCKASKNVSTYVSWYQQKPGQAPRLLIYGASNRYIGIPARFSGSGSGTDFTLTISSLEPEDFAVYYCSQSYNYPYTFGQGTKLEIK
B1 came in with a α-rat koff with rat α-CGRP of 0.0993 s⁻¹. The α-human koff with human α-CGRP worked out at 0.00209 s⁻¹.

B2: M23: G1 variant: L1 R28G; HC-FW3 L99T,A100V (antibody, V domains shown)
VH: EVQLVESGGGLVQPGGSLRLSCAASGFTFSNYWISWVRQAPGKGLEWVAEIRSESDASATHYAEAVKGRFTISRDNAKNSLYLQMNSLRAEDTAVYYCTVYFDYGLAIQNYWGQGTLVTVSS
VL: EIVLTQSPATLSLSPGERATLSCKASKGVTTYVSWYQQKPGQAPRLLIYGASNRYLGIPARFSGSGSGTDFTLTISSLEPEDFAVYYCSQSYNYPYTFGQGTKLEIK
In the test with rat α-CGRP, B2 returned a α-rat koff of 0.000799 s⁻¹. For the same molecule, the α-human koff in the test with human α-CGRP turned out to be 0.00013 s⁻¹.

B3: M82: G1 variant: L1 R28N,T30V; L2 A51H,L56T; H2 A57N; HC-FW3 L991 (printed),A100V (antibody, V domains shown)
VH: EVQLVESGGGLVQPGGSLRLSCAASGFTFSNYWISWVRQAPGKGLEWVAEIRSESDNSATHYAEAVKGRFTISRDNAKNSLYLQMNSLRAEDTAVYYCTVYFDYGLAIQNYWGQGTLVTVSS
VL: EIVLTQSPATLSLSPGERATLSCKASKNVVTYVSWYQQKPGQAPRLLIYGHSNRYTGIPARFSGSGSGTDFTLTISSLEPEDFAVYYCSQSYNYPYTFGQGTKLEIK
B3: the α-rat koff with rat α-CGRP amounted to 0.00699 s⁻¹. The α-human koff with human α-CGRP stood at 0.000877 s⁻¹.

B4: M81: G1 variant: L1 R28N,T30S; L2 L56S; H2 E54K,A57N,S58E; HC-FW3 L99T,A100V (antibody, V domains shown)
VH: EVQLVESGGGLVQPGGSLRLSCAASGFTFSNYWISWVRQAPGKGLEWVAEIRSKSDNEATHYAEAVKGRFTISRDNAKNSLYLQMNSLRAEDTAVYYCTVYFDYGLAIQNYWGQGTLVTVSS
VL: EIVLTQSPATLSLSPGERATLSCKASKNVSTYVSWYQQKPGQAPRLLIYGASNRYSGIPARFSGSGSGTDFTLTISSLEPEDFAVYYCSQSYNYPYTFGQGTKLEIK
Regarding B4, the α-rat koff with rat α-CGRP was 0.00429 s⁻¹. Further, in the test with human α-CGRP, the α-human koff worked out at 0.00049 s⁻¹.

B5: M22: G1 variant: L1 R28W; HC-FW3 L99T (antibody, V domains shown)
VH: EVQLVESGGGLVQPGGSLRLSCAASGFTFSNYWISWVRQAPGKGLEWVAEIRSESDASATHYAEAVKGRFTISRDNAKNSLYLQMNSLRAEDTAVYYCTAYFDYGLAIQNYWGQGTLVTVSS
VL: EIVLTQSPATLSLSPGERATLSCKASKWVTTYVSWYQQKPGQAPRLLIYGASNRYLGIPARFSGSGSGTDFTLTISSLEPEDFAVYYCSQSYNYPYTFGQGTKLEIK
In the test with rat α-CGRP, B5 registered a α-rat koff of 0.0011 s⁻¹. The α-human koff with human α-CGRP is 0.000116 s⁻¹.

B6: M84: G1 variant: L1 R28N,T30V; L2 A51H,L56T; H2 E54N,A57N; HC-FW3 L991 (printed),A100V (antibody, V domains shown)
VH: EVQLVESGGGLVQPGGSLRLSCAASGFTFSNYWISWVRQAPGKGLEWVAEIRSNSDNSATHYAEAVKGRFTISRDNAKNSLYLQMNSLRAEDTAVYYCTVYFDYGLAIQNYWGQGTLVTVSS
VL: EIVLTQSPATLSLSPGERATLSCKASKNVVTYVSWYQQKPGQAPRLLIYGHSNRYTGIPARFSGSGSGTDFTLTISSLEPEDFAVYYCSQSYNYPYTFGQGTKLEIK
B6 registered a α-rat koff in the test with rat α-CGRP of 0.0176 s⁻¹. Besides, the α-human koff with human α-CGRP was 0.00108 s⁻¹.

B7: M24: G1 variant: L1 R28L; HC-FW3 L99T,A100V (antibody, V domains shown)
VH: EVQLVESGGGLVQPGGSLRLSCAASGFTFSNYWISWVRQAPGKGLEWVAEIRSESDASATHYAEAVKGRFTISRDNAKNSLYLQMNSLRAEDTAVYYCTVYFDYGLAIQNYWGQGTLVTVSS
VL: EIVLTQSPATLSLSPGERATLSCKASKLVTTYVSWYQQKPGQAPRLLIYGASNRYLGIPARFSGSGSGTDFTLTISSLEPEDFAVYYCSQSYNYPYTFGQGTKLEIK
Regarding B7, the α-rat koff with rat α-CGRP is 0.00104 s⁻¹. For the same molecule, the α-human koff with human α-CGRP stood at 0.000148 s⁻¹.

B8: M20: G1 variant: L1 R28W; HC-FW3 L99R,A100L (antibody, V domains shown)
VH: EVQLVESGGGLVQPGGSLRLSCAASGFTFSNYWISWVRQAPGKGLEWVAEIRSESDASATHYAEAVKGRFTISRDNAKNSLYLQMNSLRAEDTAVYYCRLYFDYGLAIQNYWGQGTLVTVSS
VL: EIVLTQSPATLSLSPGERATLSCKASKWVTTYVSWYQQKPGQAPRLLIYGASNRYLGIPARFSGSGSGTDFTLTISSLEPEDFAVYYCSQSYNYPYTFGQGTKLEIK
In turn, B8 had a α-rat koff with rat α-CGRP of 0.00144 s⁻¹. In the test with human α-CGRP, the α-human koff came to 0.000136 s⁻¹.

B9: M21: G1 variant: L1 R28W; HC-FW3 L99S (antibody, V domains shown)
VH: EVQLVESGGGLVQPGGSLRLSCAASGFTFSNYWISWVRQAPGKGLEWVAEIRSESDASATHYAEAVKGRFTISRDNAKNSLYLQMNSLRAEDTAVYYCSAYFDYGLAIQNYWGQGTLVTVSS
VL: EIVLTQSPATLSLSPGERATLSCKASKWVTTYVSWYQQKPGQAPRLLIYGASNRYLGIPARFSGSGSGTDFTLTISSLEPEDFAVYYCSQSYNYPYTFGQGTKLEIK
In turn, B9 yielded a α-rat koff in the test with rat α-CGRP of 0.000695 s⁻¹. For the same molecule, the α-human koff with human α-CGRP turned out to be 0.000142 s⁻¹.

B10: M83: G1 variant: L1 R28N,T30V; L2 A51H,L56T; H2 E54K,A57N,S58M,H61F; HC-FW3 L991 (printed),A100V (antibody, V domains shown)
VH: EVQLVESGGGLVQPGGSLRLSCAASGFTFSNYWISWVRQAPGKGLEWVAEIRSKSDNMATFYAEAVKGRFTISRDNAKNSLYLQMNSLRAEDTAVYYCTVYFDYGLAIQNYWGQGTLVTVSS
VL: EIVLTQSPATLSLSPGERATLSCKASKNVVTYVSWYQQKPGQAPRLLIYGHSNRYTGIPARFSGSGSGTDFTLTISSLEPEDFAVYYCSQSYNYPYTFGQGTKLEIK
Regarding B10, the α-rat koff result with rat α-CGRP is “No binding”. The molecule further returned a α-human koff with human α-CGRP of 0.000933 s⁻¹.

B11: M25: G1 variant: L1 R28N; HC-FW3 L99T,A100V (antibody, V domains shown)
VH: EVQLVESGGGLVQPGGSLRLSCAASGFTFSNYWISWVRQAPGKGLEWVAEIRSESDASATHYAEAVKGRFTISRDNAKNSLYLQMNSLRAEDTAVYYCTVYFDYGLAIQNYWGQGTLVTVSS
VL: EIVLTQSPATLSLSPGERATLSCKASKNVTTYVSWYQQKPGQAPRLLIYGASNRYLGIPARFSGSGSGTDFTLTISSLEPEDFAVYYCSQSYNYPYTFGQGTKLEIK
B11 came in with a α-rat koff in the test with rat α-CGRP of 0.0014 s⁻¹. The α-human koff with human α-CGRP turned out to be 0.00014 s⁻¹.

For the origin of these results see US10766952B2, “Methods for reducing migraine frequency in a subject in need thereof” (Beth Israel Deaconess Medical Center, Inc., priority 2017, dated 2020).
